Test results published in PMC2848764, “The Arabidopsis EAR-motif-containing protein RAP2.1 functions as an active transcriptional repressor to keep stress responses under tight control”.

B1: mDRE (dsDNA)
DNA 1: AATTCAAAAGATATACTACTTTTATGAGTT
DNA 2: AACTCATAAAAGTAGTATATCTTTTGAATT
B2: wDRE (dsDNA)
DNA 1: AATTCAAAAGATATACTACCGACATGAGTT
DNA 2: AACTCATGTCGGTAGTATATCTTTTGAATT

Target: GST-RAP2.1 N-terminal 120 aa (AP2 DNA-binding domain) (UniProt Q8LC30 1-120)
Experiment: EMSA; 100 ng probe, 5 or 10 ug protein; EMSA as in cited ref 42; buffer, salt, pH and temperature not given; 100 ng probe with 5 or 10 ug protein
Settings: protein: recombinant; tags: GST (pGEX6P-1, N-terminal)

Chain of GST-RAP2.1 N-terminal 120 aa (AP2 DNA-binding domain) (Q8LC30 1-120): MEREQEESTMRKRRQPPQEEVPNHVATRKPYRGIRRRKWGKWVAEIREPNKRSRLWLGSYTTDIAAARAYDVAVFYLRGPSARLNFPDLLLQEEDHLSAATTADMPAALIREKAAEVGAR

Binder | binding result
B1 | no binding
B2 | binds
